From patent US20050003548A1

Biological target: human CD40 on cells (293.CD40 cells, Namalwa cells, human monocyte-derived dendritic cells) (human) (UniProt P25942)
Assay: cell-based or functional assay

Sequence of UniProt P25942 (P25942 21-277): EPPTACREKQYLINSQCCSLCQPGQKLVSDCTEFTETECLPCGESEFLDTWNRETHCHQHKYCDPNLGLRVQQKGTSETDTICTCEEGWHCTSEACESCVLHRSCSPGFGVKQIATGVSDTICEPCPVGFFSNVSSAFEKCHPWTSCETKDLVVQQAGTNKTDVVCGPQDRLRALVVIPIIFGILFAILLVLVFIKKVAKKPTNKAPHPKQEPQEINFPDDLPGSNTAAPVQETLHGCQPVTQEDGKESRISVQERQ

Substance | reporter gene delivery to human monocyte-derived dendritic cells by Ad5.DR-LL-Cd complexed with the ligand, fold over Ad5.DR [fold]
Fc-CD40L (TNF-like domain of human CD40 Ligand fused to the hinge region of the Fc domain of human IgG gamma 1) (from UniProt P29965 116-261) (Fc fusion) | 28 to 35
Fc-G28.5 (fusion of anti-CD40 single chain antibody G28.5 with the Fc domain of human immunoglobulin and a six-histidine sequence) (Fc fusion) | 28 to 35
